These results are taken from paper PMC8498191, “Structural and Mechanistic Insights Into Dimethylsulfoxide Formation Through Dimethylsulfide Oxidation” (Frontiers in Microbiology, 2021).

In one data set the target is T1, Tmm7211 (Candidatus Pelagibacter sp. HTCC7211, UniProt B6BQB2).
T1 construct: gene tmm; full-length synthesized gene (1335 bp, 444 residues, 52 kDa), N-terminal His tag (pET28a), E. coli BL21(DE3); Ni-NTA and Superdex-200
T1 sequence (B6BQB2 1-444): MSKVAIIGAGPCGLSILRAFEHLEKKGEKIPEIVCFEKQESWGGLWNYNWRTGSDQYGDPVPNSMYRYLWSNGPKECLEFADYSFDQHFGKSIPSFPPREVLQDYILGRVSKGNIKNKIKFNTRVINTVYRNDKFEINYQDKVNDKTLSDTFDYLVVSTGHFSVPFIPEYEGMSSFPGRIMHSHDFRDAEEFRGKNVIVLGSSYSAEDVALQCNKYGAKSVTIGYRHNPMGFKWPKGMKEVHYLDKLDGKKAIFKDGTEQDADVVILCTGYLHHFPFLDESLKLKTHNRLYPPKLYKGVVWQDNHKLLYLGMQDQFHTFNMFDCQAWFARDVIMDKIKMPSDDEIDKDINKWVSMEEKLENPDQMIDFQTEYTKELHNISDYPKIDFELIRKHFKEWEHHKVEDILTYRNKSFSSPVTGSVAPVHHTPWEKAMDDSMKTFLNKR
In words: NADPH oxidation at […] nm. It is filed as biochemical. The following applies: read-out: Apparent KM; 0.25 mM NADPH, 1 μM enzyme, 10 mM Tris-HCl pH 7.0, 100 mM NaCl.

Substrate in data set [1]: Cn1cc[nH]c1=S
In words: purified protein. Particulars: 0.25 mM NADPH, 1 μM enzyme, 10 mM Tris-HCl pH 7.0, 100 mM NaCl.

Data set [2] deals with the molecule itself. In words: SEC; analytical gel filtration on a calibrated Superose 6 column, 10 mM Tris-HCl (pH 8.0), 100 mM NaCl; apparent mass 95 kDa against 52 kDa calculated for the monomer.
Substrate in data set [3]: NC(=O)C1=CN([C@@H]2O[C@H](COP(=O)(O)OP(=O)(O)OC[C@H]3O[C@@H](n4cnc5c(N)ncnc54)[C@H](OP(=O)(O)O)[C@@H]3O)[C@@H](O)[C@H]2O)C=CC1
Put plainly: purified protein. It is filed as biochemical, Candidatus Pelagibacter sp. HTCC7211. Particulars: 1 mM DMS, 1.5 μM enzyme.

Substrate in data set [4]: CN(C)C
In words: purified protein. It is filed as biochemical, Candidatus Pelagibacter sp. HTCC7211. Particulars: 0.25 mM NADPH, 1 μM enzyme, 10 mM Tris-HCl pH 7.0, 100 mM NaCl; pH 7.0.

Substrate in data set [5]: CSC
Put plainly: purified protein. The data set is classed as biochemical, Candidatus Pelagibacter sp. HTCC7211. Particulars: 0.25 mM NADPH, 1 μM enzyme, 10 mM Tris-HCl pH 7.0, 100 mM NaCl; pH 7.0.

In the case of `CNC` [DMA], the Km on Tmm7211 came out at 181 ± 23.7 µM.

B1: trimethylamine monooxygenase from Pelagibacter sp. HTCC7211 (Tmm_(7211)) (enzyme, UniProt B6BQB2 1-444, looked up)
chain: T1 sequence (B6BQB2 1-444)
notes: trimethylamine monooxygenase (Tmm, EC 1.14.13.148), a bacterial flavin-containing monooxygenase of the SAR11 bacterium Pelagibacter sp; HTCC7211; 1335-bp full-length tmm gene, synthesised; 444 amino acid residues, calculated mass 52 kDa; NADPH (5 mM) was added before crystallisation, and NADP+ and FAD are seen in the structure; Cloned in pET28a; also called WT Tmm_(7211); recombinant Tmm_(7211); …
B1: the Km in the data set “purified protein [1]” stood at 116.2 ± 13.8 µM; in “purified protein [3]”, 12.8 ± 0.4 µM; in “purified protein [4]”, 139.0 ± 10.7 µM; in “purified protein [5]”, 250.5 ± 23.0 µM. For the same molecule, the kcat was found to be 0.0867 s⁻¹ in “purified protein [1]”, 0.075 ± 0.005 s⁻¹ in “purified protein [3]”, 0.373 ± 0.0133 s⁻¹ in the data set “purified protein [4]” and 0.075 ± 0.005 s⁻¹ in the data set “purified protein [5]”. In addition, the values for the kcat/Km in the data set “purified protein [1]”, in the data set “purified protein [4]” and in the data set “purified protein [5]” were 747 M⁻¹ s⁻¹, 2690 M⁻¹ s⁻¹ and 300 M⁻¹ s⁻¹, respectively. Moreover, in data set [2], the “stoichiometry N” value was 2.

The Km is the concentration of substrate that gives half-maximal velocity. The kcat is the maximal rate divided by the concentration of active sites. In general, kcat/Km refers to the turnover number divided by the Michaelis constant. By stoichiometry N is commonly meant the number of molecules, sites or subunits per partner or assembly.
